# Like-named read-outs stand apart in the source and are kept apart here.
# B1: pegylated interferon lambda-1a (protein)
# chain: MKPTTTGKGCHIGRFKSLSPQELASFKKARDALEESLKLKNWSCSSPVFPGNWDLRLLQVRERPVALEAELALTLKVLEAAAGPALEDVLDQPLHTLHHILSQLQACIQPQPTAGPRPRGRLHHWLHRLQEAPKKESAGCLEASVTFNLFRLLTRDLKYVADGNLSLRTSTHPEST
# modifications: PEG
# notes: 180 mcg subcutaneous injection
# Test system: SARS-CoV-2
# [1] = High risk population, Brazil and Toronto, N = 709
# [2] = High risk population, Brazil and Toronto, N = 709 vs placebo N = 836
# [3] = High risk population, Brazil, N = 698
molecule,measurement,setting,value
B1,ER visit ≥6 h or hospitalization due to COVID-19: events/patients,All,25/931
same,All cause death or hospitalization for COVID-19: events/patients,"All, Brazil+Toronto",24/931
same,"All cause death or hospitalization for COVID-19: Bayes prob, Dichotomous","All, vs placebo",0.951
same,"All cause death or hospitalization for COVID-19: Bayes prob, TTE","All, vs placebo",0.9557
same,"All cause death or hospitalization for COVID-19: HR (95% CrI), TTE","All, vs placebo","0.65 (0.39, 1.05)"
same,"All cause death or hospitalization for COVID-19: RR (95% CrI), Dichotomous","All, vs placebo","0.66 (0.40, 1.07)"
same,"ER visit ≥6 h or hospitalization due to COVID-19: Bayes prob, Dichotomous","All, vs placebo",0.999
same,"ER visit ≥6 h or hospitalization due to COVID-19: Bayes prob, TTE","All, vs placebo",0.9995
same,"ER visit ≥6 h or hospitalization due to COVID-19: HR (95% CrI), TTE","All, vs placebo","0.47 (0.29, 0.73)"
same,"ER visit ≥6 h or hospitalization due to COVID-19: RR (95% CrI), Dichotomous","All, vs placebo","0.49 (0.30, 0.76)"
same,"HR, all-cause mortality or hospitalization due to COVID-19, Time-to-Event analysis",Brazil+Toronto combined,0.65
same,"RR, all-cause mortality or hospitalization due to COVID-19",Brazil+Toronto combined,0.66
same,"All cause ER visit >6 h, hospitalization, or death: percentage",[1],(4.2%)
same,"All cause ER visit >6 h, hospitalization, or death: total",[1],30
same,"All cause ER visit, hospitalization, or death: percentage",[1],(13.7%)
same,"All cause ER visit, hospitalization, or death: total",[1],97
same,All cause death or hospitalization due to COVID-19: percentage,[1],(3.1%)
same,All cause death or hospitalization due to COVID-19: total,[1],22
same,Days of hospitalization,[1],0 days
same,Days on mechanical ventilation,[1],0 days
same,Days to recovery: median,[1],14 days
same,Death due to COVID-19: percentage,[1],(0.1%)
same,Death due to COVID-19: total,[1],1
same,Death or hospitalization due to COVID-19: percentage,[1],(2.8%)
same,Death or hospitalization due to COVID-19: total,[1],20
same,Hospitalization for COVID-19 (excluding those resulting in death): percentage,[1],(2.7%)
same,Hospitalization for COVID-19 (excluding those resulting in death): total,[1],19
same,Hospitalization or ER (any duration) for COVID-19: percentage,[1],(10.7%)
same,Hospitalization or ER (any duration) for COVID-19: total,[1],76
same,Hospitalization or ER >6 h for COVID-19: percentage,[1],(3.1%)
same,Hospitalization or ER >6 h for COVID-19: total,[1],22
same,Mechanical ventilation: percentage,[1],(0.6%)
same,Mechanical ventilation: total,[1],4
same,"All cause ER visit >6 h, hospitalization, or death: Pr (Superiority)",[2],0.983
same,"All cause ER visit >6 h, hospitalization, or death: RR (95% CrI), estimated treatment effect",[2],"0.64 (0.41, 0.97)"
same,"All cause ER visit, hospitalization, or death: Pr (Superiority)",[2],0.887
same,"All cause ER visit, hospitalization, or death: RR (95% CrI), estimated treatment effect",[2],"0.86 (0.68, 1.10)"
same,All cause death or hospitalization due to COVID-19: Pr (Superiority),[2],0.927
same,"All cause death or hospitalization due to COVID-19: RR (95% CrI), estimated treatment effect",[2],"0.69 (0.41, 1.14)"
same,"Days of hospitalization: MD (95% CrI), estimated treatment effect",[2],"−1.39 (−4.38, 1.20)"
same,Days of hospitalization: Pr (Superiority),[2],0.8509
same,"Days on mechanical ventilation: MD (95% CrI), estimated treatment effect",[2],"−4.47 (−6.89, 3.09)"
same,Days on mechanical ventilation: Pr (Superiority),[2],0.9052
same,"Days to death for COVID-19: HR (95% CrI), estimated treatment effect",[2],"0.23 (0.01, 1.95)"
same,Days to death for COVID-19: Pr (Superiority),[2],0.9040
same,"Days to hospitalization for COVID-19: HR (95% CrI), estimated treatment effect",[2],"0.57 (0.33, 0.99)"
same,Days to hospitalization for COVID-19: Pr (Superiority),[2],0.9770
same,"Days to hospitalization or ER visit >6 h for COVID-19: HR (95% CrI), estimated treatment effect",[2],"0.47 (0.29, 0.74)"
same,Days to hospitalization or ER visit >6 h for COVID-19: Pr (Superiority),[2],0.9992
same,"Days to hospitalization or death for COVID-19: HR (95% CrI), estimated treatment effect",[2],"0.61 (0.35, 1.07)"
same,Days to hospitalization or death for COVID-19: Pr (Superiority),[2],0.9610
same,"Days to recovery: HR (95% CrI), estimated treatment effect",[2],"0.93 (0.83, 1.04)"
same,Days to recovery: Pr (Superiority),[2],0.8862
same,Death due to COVID-19: Pr (Superiority),[2],0.847
same,"Death due to COVID-19: RR (95% CrI), estimated treatment effect",[2],"0.42 (0.05, 2.06)"
same,Death or hospitalization due to COVID-19: Pr (Superiority),[2],0.961
same,"Death or hospitalization due to COVID-19: RR (95% CrI), estimated treatment effect",[2],"0.63 (0.37, 1.05)"
same,Hospitalization for COVID-19 (excluding those resulting in death): Pr (Superiority),[2],0.931
same,"Hospitalization for COVID-19 (excluding those resulting in death): RR (95% CrI), estimated treatment effect",[2],"0.67 (0.38, 1.14)"
same,Hospitalization or ER (any duration) for COVID-19: Pr (Superiority),[2],0.992
same,"Hospitalization or ER (any duration) for COVID-19: RR (95% CrI), estimated treatment effect",[2],"0.72 (0.55, 0.94)"
same,Hospitalization or ER >6 h for COVID-19: Pr (Superiority),[2],0.999
same,"Hospitalization or ER >6 h for COVID-19: RR (95% CI), estimated treatment effect",[2],"0.49 (0.30, 0.78)"
same,Mechanical ventilation: Pr (Superiority),[2],0.716
same,"Mechanical ventilation: RR (95% CrI), estimated treatment effect",[2],"0.72 (0.21, 2.20)"
same,"All cause ER visit >6 h, hospitalization, or death: percentage",[3],(4.3%)
same,"All cause ER visit >6 h, hospitalization, or death: total",[3],30
same,"All cause ER visit, hospitalization, or death: percentage",[3],(13.9%)
same,"All cause ER visit, hospitalization, or death: total",[3],97
same,All cause death or hospitalization due to COVID-19: percentage,[3],(3.2%)
same,All cause death or hospitalization due to COVID-19: total,[3],22
same,Days of hospitalization,[3],0 days
same,Days on mechanical ventilation,[3],0 days
same,Days to recovery: median,[3],14 days
same,Death due to COVID-19: percentage,[3],(0.1%)
same,Death due to COVID-19: total,[3],1
same,Death or hospitalization due to COVID-19: percentage,[3],(2.9%)
same,Death or hospitalization due to COVID-19: total,[3],20
same,Hospitalization for COVID-19 (excluding those resulting in death): percentage,[3],(2.7%)
same,Hospitalization for COVID-19 (excluding those resulting in death): total,[3],19
same,Hospitalization or ER (any duration) for COVID-19: percentage,[3],(10.9%)
